We go through one molecule from PMC8336515, “OTUD7B Deubiquitinates LSD1 to Govern Its Binding Partner Specificity, Homeostasis, and Breast Cancer Metastasis” (Advanced Science, 2021).

This experiment has as its target recombinant LSD1 (UniProt O60341 1-852). The experiment can be described thus: pull-down; recombinant proteins in vitro (Figure S1F); GST fusion on glutathione-sepharose beads, NETN buffer, 4 °C for 2 h. The note with it: both partners purified.

B1: recombinant OTUD7B (enzyme)
chain: MTLDMDAVLSDFVRSTGAEPGLARDLLEGKNWDVNAALSDFEQLRQVHAGNLPPSFSEGSGGSRTPEKGFSDREPTRPPRPILQRQDDIVQEKRLSRGISHASSSIVSLARSHVSSNGGGGGSNEHPLEMPICAFQLPDLTVYNEDFRSFIERDLIEQSMLVALEQAGRLNWWVSVDPTSQRLLPLATTGDGNCLLHAASLGMWGFHDRDLMLRKALYALMEKGVEKEALKRRWRWQQTQQNKESGLVYTEDEWQKEWNELIKLASSEPRMHLGTNGANCGGVESSEEPVYESLEEFHVFVLAHVLRRPIVVVADTMLRDSGGEAFAPIPFGGIYLPLEVPASQCHRSPLVLAYDQAHFSALVSMEQKENTKEQAVIPLTDSEYKLLPLHFAVDPGKGWEWGKDDSDNVRLASVILSLEVKLHLLHSYMNVKWIPLSSDAQAPLAQPESPTASAGDEPRSTPESGDSDKESVGSSSTSNEGGRRKEKSKRDREKDKKRADSVANKLGSFGKTLGSKLKKNMGGLMHSKGSKPGGVGTGLGGSSGTETLEKKKKNSLKSWKGGKEEAAGDGPVSEKPPAESVGNGGSKYSQEVMQSLSILRTAMQGEGKFIFVGTLKMGHRHQYQEEMIQRYLSDAEERFLAEQKQKEAERKIMNGGIGGGPPPAKKPEPDAREEQPTGPPAESRAMAFSTGYPGDFTIPRPSGGGVHCQEPRRQLAGGPCVGGLPPYATFPRQCPPGRPYPHQDSIPSLEPGSHSKDGLHRGALLPPPYRVADSYSNGYREPPEPDGWAGGLRGLPPTQTKCKQPNCSFYGHPETNNFCSCCYREELRRREREPDGELLVHRF
notes: OTUD7B; cDNA in pGEX4T1 (GST) or pET21b (His); also called GST-OTUD7B; His-OTUD7B; source: recombinant; GST fusions expressed in BL21 and purified by glutathione-sepharose beads; not shown: GST or His (GST-OTUD7B and His-OTUD7B were both cloned)
In the case of B1, the binding result is “binds”.
